# Experimental data: patent US20250215083A1 (JIANGSU HENGRUI PHARMACEUTICALS, published 2025)
# How the values were obtained:
# human GPRC5D = molecular target: T1, human GPRC5D (human, UniProt Q9NZD1 1-345); test: FACS, MM.1R cells
# T1 construct: whole, on cells; also called membrane surface GPRC5D
# Procedure: (§1) To test the capacity of the GPRC5D/CD3 bispecific antibodies of the present disclosure to bind to GPRC5D, a flow cytometry assay was used in this test example to measure the capacity of the GPRC5D/CD3 bispecific antibodies to bind to the human multiple myeloma cell line MM.1R (ATCC® CRL-2975), which expresses GPRC5D, and to a stably transfected cell strain CHOK1-cynoGPRC5D, which expresses cynomolgus monkey GPRC5D. The specific procedure was as follows: The cells described above were cultured in complete culture medium containing 10% FBS, incubated in a 37° C., 5% CO₂ incubator for 2 days, and added to a cell plate at 1×10⁵ cells/well. The plate was centrifuged at 300 g for 5 min and washed once with 1% BSA. The antibodies were serially diluted to 8 concentrations and added to the cell plate at 100 μL/well. The plate was incubated at 4° C. for 1 h and washed once with 1% BSA. […] The plate was washed three times with 1% BSA, PBS was added at 100 μL/well, and plate reading was performed.
# cynomolgus monkey GPRC5D = molecular target: T2, cynomolgus monkey GPRC5D (cynomolgus monkey); test: FACS, CHOK1-cynoGPRC5D cells
# T2 construct: whole, on cells; also called CynoGPRC5D; cynoGPRC5D
# Procedure: as §1
# T1 sequence (Q9NZD1 whole entry): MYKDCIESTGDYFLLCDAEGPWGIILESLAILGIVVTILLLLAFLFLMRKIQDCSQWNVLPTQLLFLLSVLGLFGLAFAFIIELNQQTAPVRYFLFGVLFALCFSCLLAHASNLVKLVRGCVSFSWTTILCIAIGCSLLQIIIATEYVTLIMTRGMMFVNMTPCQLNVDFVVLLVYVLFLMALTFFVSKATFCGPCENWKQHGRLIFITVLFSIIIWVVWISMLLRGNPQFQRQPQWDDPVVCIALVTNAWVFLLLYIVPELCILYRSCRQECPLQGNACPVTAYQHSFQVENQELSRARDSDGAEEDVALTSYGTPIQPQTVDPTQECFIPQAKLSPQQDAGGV
Binder,EC50 (human GPRC5D),Max (human GPRC5D),EC50 (cynomolgus monkey GPRC5D),Max (cynomolgus monkey GPRC5D)
"Chi-45 (antibody, human IgG1, kappa, L234A L235A, V domains shown) VH: EVKLVESGGGLVQPGDFLSLSCAASGFTFTDYYLSWVRQPPGKALEWLAFIRNRAKGYTTEYSASVKGRFTISRDNSQSILYLQMNVLRAEDSATYYCARMGGKGWHFDVWGTGTTVTVSS VL: DVLMTQSPLSLPVSLGDQASISCRSSQSIVHSNGNTYLEWYLQKPGQSPKLLIYKVSNRFSGVPDRFFGSGSGTDFTLKINRVEAEDLGVYYCFQGSHVPFTFGGGTKLEIKR",1.64 nM,1250,1.91 nM,14600
"Chi-24 (antibody, human IgG1, kappa, L234A L235A, V domains shown) VH: QVQLQQSDAELVKPGGSVKISCKVSGYTFTDYPIHWMKQRPEQGLEWMGYVFPRDGSTKYNEKFRVKATWTADKSSSTVYMQLNSLTSDDSAVYFCSRELTAYWGQGTTLRVSS VL: not shown",2.81 nM,5000,3.96 nM,9630
"F4-1 (bispecific antibody, formula 4) heavy 1: not shown light 1: not shown heavy 2: EVQLVESGGGLVQPGGSLRLSCAASGFTFTDYYLSWVRQAPGKGLEWVAFIRNRAKGYTTEYSASVKGRFTISRDNAKNSLYLQMNSLRAEDTAVYYCARMGGKGWHFDVWGQGTTVTVSSASTKGPSVFPLAPSSKSTSGGTAALGCLVKDYFPEPVTVSWNSGALTSGVHTFPAVLQSSGLYSLSSVVTVPSSSLGTQTYICNVNHKPSNTKVDKKVEPKSCDKTHTCPPCPAPEAAGGPSVFLFPPKPKDTLMISRTPEVTCVVVDVSHEDPEVKFNWYVDGVEVHNAKTKPREEQYNSTYRVVSVLTVLHQDWLNGKEYKCKVSNKALPAPIEKTISKAKGQPREPQVCTLPPSRDELTKNQVSLSCAVKGFYPSDIAVEWESNGQPENNYKTTPPVLDSDGSFFLVSKLTVDKSRWQQGNVFSCSVMHEALHNHYTQKSLSLSPGK light 2: DVVMTQSPLSLPVTPGEPASISCRSSQSIVHSNRNTYLEWYLQKPGQSPKLLIYKVSNRFSGVPDRFFGSGSGTDFTLKINRVEAEDVGVYYCFQGSHVPFTFGGGTKVEIKRTVAAPSVFIFPPSDEQLKSGTASVVCLLNNFYPREAKVQWKVDNALQSGNSQESVTEQDSKDSTYSLSSTLTLSKADYEKHKVYACEVTHQGLSSPVTKSFNRGEC",16.9 nM,13800,3.28 nM,76600
"F4-3 (bispecific antibody, formula 4) heavy 1: not shown light 1: not shown heavy 2: EVQLVESGGGLVQPGGSLRLSCAASGFTFTDYYLSWVRQAPGKGLEWVAFIRNRAKGYTTEYSASVKGRFTISRDNAQNSLYLQMNSLRAEDTAVYYCARMGGKGWHFDVWGQGTTVTVSSASTKGPSVFPLAPSSKSTSGGTAALGCLVKDYFPEPVTVSWNSGALTSGVHTFPAVLQSSGLYSLSSVVTVPSSSLGTQTYICNVNHKPSNTKVDKKVEPKSCDKTHTCPPCPAPEAAGGPSVFLFPPKPKDTLMISRTPEVTCVVVDVSHEDPEVKFNWYVDGVEVHNAKTKPREEQYNSTYRVVSVLTVLHQDWLNGKEYKCKVSNKALPAPIEKTISKAKGQPREPQVCTLPPSRDELTKNQVSLSCAVKGFYPSDIAVEWESNGQPENNYKTTPPVLDSDGSFFLVSKLTVDKSRWQQGNVFSCSVMHEALHNHYTQKSLSLSPGK light 2: DVVMTQSPLSLPVTPGEPASISCRSSQSIVHSNRNTYLEWYLQKPGQSPKLLIYKVSNRFSGVPDRFFGSGSGTDFTLKINRVEAEDVGVYYCFQGSHVPFTFGGGTKVEIKRTVAAPSVFIFPPSDEQLKSGTASVVCLLNNFYPREAKVQWKVDNALQSGNSQESVTEQDSKDSTYSLSSTLTLSKADYEKHKVYACEVTHQGLSSPVTKSFNRGEC",16.1 nM,13800,3.83 nM,76100
"F4-2 (bispecific antibody, formula 4) heavy 1: not shown light 1: not shown heavy 2: EVQLVESGGGLVQPGGSLRLSCAASGFTFTDYYLSWVRQAPGKGLEWVAFIRNRAKGYTTEYSASVKGRFTISRDNSKNSLYLQMNSLRAEDTAVYYCARMGGKGWHFDVWGQGTTVTVSSASTKGPSVFPLAPSSKSTSGGTAALGCLVKDYFPEPVTVSWNSGALTSGVHTFPAVLQSSGLYSLSSVVTVPSSSLGTQTYICNVNHKPSNTKVDKKVEPKSCDKTHTCPPCPAPEAAGGPSVFLFPPKPKDTLMISRTPEVTCVVVDVSHEDPEVKFNWYVDGVEVHNAKTKPREEQYNSTYRVVSVLTVLHQDWLNGKEYKCKVSNKALPAPIEKTISKAKGQPREPQVCTLPPSRDELTKNQVSLSCAVKGFYPSDIAVEWESNGQPENNYKTTPPVLDSDGSFFLVSKLTVDKSRWQQGNVFSCSVMHEALHNHYTQKSLSLSPGK light 2: DVVMTQSPLSLPVTPGEPASISCRSSQSIVHSNRNTYLEWYLQKPGQSPKLLIYKVSNRFSGVPDRFFGSGSGTDFTLKINRVEAEDVGVYYCFQGSHVPFTFGGGTKVEIKRTVAAPSVFIFPPSDEQLKSGTASVVCLLNNFYPREAKVQWKVDNALQSGNSQESVTEQDSKDSTYSLSSTLTLSKADYEKHKVYACEVTHQGLSSPVTKSFNRGEC",15.8 nM,13700,3.45 nM,75200
"JNJ-64407564 (bispecific antibody, human IgG4 S228P, kappa, lambda, F234A L235A, anti-GPRC5D arm and anti-CD3E arm; also called positive control molecule) heavy 1: not shown light 1: DIQMTQSPSSLSASVGDRVTITCKASQNVATHVGWYQQKPGKAPKRLIYSASYRYSGVPSRFSGSGSGTEFTLTISNLQPEDFATYYCQQYNRYPYTFGQGTKLEIKRTVAAPSVFIFPPSDEQLKSGTASVVCLLNNFYPREAKVQWKVDNALQSGNSQESVTEQDSKDSTYSLSSTLTLSKADYEKHKVYACEVTHQGLSSPVTKSFNRGEC heavy 2: EVQLVESGGGLVQPGGSLRLSCAASGFTFNTYAMNWVRQAPGKGLEWVARIRSKYNNYATYYAASVKGRFTISRDDSKNSLYLQMNSLKTEDTAVYYCARHGNFGNSYVSWFAYWGQGTLVTVSSASTKGPSVFPLAPCSRSTSESTAALGCLVKDYFPEPVTVSWNSGALTSGVHTFPAVLQSSGLYSLSSVVTVPSSSLGTKTYTCNVDHKPSNTKVDKRVESKYGPPCPPCPAPEAAGGPSVFLFPPKPKDTLMISRTPEVTCVVVDVSQEDPEVQFNWYVDGVEVHNAKTKPREEQFNSTYRVVSVLTVLHQDWLNGKEYKCKVSNKGLPSSIEKTISKAKGQPREPQVYTLPPSQEEMTKNQVSLTCLVKGFYPSDIAVEWESNGQPENNYKTTPPVLDSDGSFLLYSKLTVDKSRWQEGNVFSCSVMHEALHNHYTQKSLSLSLGK light 2: QTVVTQEPSLTVSPGGTVTLTCRSSTGAVTTSNYANWVQQKPGQAPRGLIGGTNKRAPGTPARFSGSLLGGKAALTLSGVQPEDEAEYYCALWYSNLWVFGGGTKLTVLGQPKAAPSVTLFPPSSEELQANKATLVCLISDFYPGAVTVAWKADSSPVKAGVETTTPSKQSNNKYAASSYLSLTPEQWKSHRSYSCQVTHEGSTVEKTVAPTECS",–,–,0.06 nM,0.26

# The remaining binders from weak to strong by EC50 (human GPRC5D), led by results:
EC50 (human GPRC5D),Max (human GPRC5D),EC50 (cynomolgus monkey GPRC5D),Max (cynomolgus monkey GPRC5D),Binder
1.57 nM,1300,–,–,"F11-18 (bispecific antibody, formula 11 with Chi-24 variable regions) heavy: not shown light: DVVLTQTPLTLSVTIGQPASISCKSSQSLLHSNGKTYLNWLLQRPGQSPRRLIYLVSKLDSGVPDRFAGSGSGTDFTLKITRVEAEDLGVYYCAQGTHFPRTFGGGSKLEIRRTVAAPSVFIFPPSDEQLKSGTASVVCLLNNFYPREAKVQWKVDNALQSGNSQESVTEQDSKDSTYSLSSTLTLSKADYEKHKVYACEVTHQGLSSPVTKSFNRGEC"
1.43 nM,5210,1.2 nM,7880,"Chi-1 (antibody, human IgG1, kappa, L234A L235A, V domains shown) VH: EVQLVESGGGLVKPGGSLKLSCAASGFTFSDYGMHWVRQAPEKGLEWVAFISSGSSTIYYADTVKGRFTISRDNAKNTLFLQMTSLRSEDTAIYYCTRLGPNWYFDVWGTGTTVTVSS VL: DVVMTQTPLSLSVSLGDQASISCRSSQSLVHSNGNTYLYWYLQKPGQSPKLLIYKVSNRFSGVPDRFSGSGSGTDFTLKISRVEAEDLGVYFCSQSTHVPPLTFGAGTKLELKR"
1.32 nM,1140,2.71 nM,9790,"F11-19 (bispecific antibody, formula 11 with Chi-30 variable regions) heavy: not shown light: DIVMTQSQKFMSTSVGDRVSVTCKASQNVGSNVAWYQQKPGQSPKALIYSASYRYSGVPDRFTGSGSGTDFTLTISNVQSEDLAEYFCHQYNSYPPTFGAGTKLALKRTVAAPSVFIFPPSDEQLKSGTASVVCLLNNFYPREAKVQWKVDNALQSGNSQESVTEQDSKDSTYSLSSTLTLSKADYEKHKVYACEVTHQGLSSPVTKSFNRGEC"
0.46 nM,2100,1.57 nM,7940,"Chi-30 (antibody, human IgG1, kappa, L234A L235A, V domains shown) VH: EVQLQQSGPELVKPGGSMKISCKASGYSFTGYTMNWVKQSHGKNPEWIGLINPYNGGTRNNQKFKDKATLTVDKSSSTAYMELLSLTSEDSAVYYCTRWGLRLAMDYWGQGTSVTVSS VL: DIVMTQSQKFMSTSVGDRVSVTCKASQNVGSNVAWYQQKPGQSPKALIYSASYRYSGVPDRFTGSGSGTDFTLTISNVQSEDLAEYFCHQYNSYPPTFGAGTKLALKR"
0.31 nM,1.82,0.35 nM,0.98,"F11-17 (bispecific antibody, formula 11 with Chi-1 variable regions) heavy: not shown light: DVVMTQTPLSLSVSLGDQASISCRSSQSLVHSNGNTYLYWYLQKPGQSPKLLIYKVSNRFSGVPDRFSGSGSGTDFTLKISRVEAEDLGVYFCSQSTHVPPLTFGAGTKLELKRTVAAPSVFIFPPSDEQLKSGTASVVCLLNNFYPREAKVQWKVDNALQSGNSQESVTEQDSKDSTYSLSSTLTLSKADYEKHKVYACEVTHQGLSSPVTKSFNRGEC"
